Experimental data published in doi:10.1101/2020.01.31.925156.
pKd: −log10 of the molar value. “And” between values parts separate entries of the source, which are not always exact repeats. Identical values can stand only once. Like-named read-outs stand apart in the source and are kept apart here.

What was measured:
Test in all cases: mass photometry
[1] = molecular target: trastuzumab (Herceptin®), immunoglobulin G (IgG) monoclonal antibody
[2] = molecular target: deglycosylated trastuzumab
[3] = molecular target: deglycosylated trastuzumab; remark: listed apart in the source
[4] = molecular target: trastuzumab (Herceptin®), immunoglobulin G (IgG) monoclonal antibody; remark: listed apart in the source
[5] = molecular target: deglycosylated trastuzumab; remark: listed apart in the source
[6] = molecular target: recombinant human FcRN (His and Avi tagged), neonatal Fc receptor (human) (UniProt P55899)
[7] = molecular target: trastuzumab (Herceptin®), immunoglobulin G (IgG) monoclonal antibody; remark: listed apart in the source
[8] = molecular target: recombinant human FcRN (His and Avi tagged), neonatal Fc receptor (human) (UniProt P55899); remark: listed apart in the source
[9] = molecular target: recombinant human FcRN (His and Avi tagged), neonatal Fc receptor (human) (UniProt P55899); remark: listed apart in the source
[10] = molecular target: trastuzumab (Herceptin®), immunoglobulin G (IgG) monoclonal antibody; remark: listed apart in the source
[11] = molecular target: recombinant human FcRN (His and Avi tagged), neonatal Fc receptor (human) (UniProt P55899); remark: listed apart in the source

Row | Substance | pKd [1] | percent complex formation [1] [%] | pKd [2] | percent bound antibody [2] [%] | pKd [3] | pKd [4] | koff [4] [s⁻¹] | kon [4] [M⁻¹ s⁻¹] | pKd [5] | koff [5] [s⁻¹] | kon [5] [M⁻¹ s⁻¹] | pKd [6] | Kd of IgG plus two FcRns (second FcRn) [7] | Kd of IgG-FcRn monomer (first FcRn) [7] | stoichiometry N [7] | pKd [8] | stoichiometry N [8] | pKd [9] | pKd [10] | pKd [11]
1 | FcγRIa (CD64 human recombinant, His Tag) (from UniProt P12314) (receptor) | 10.30 | 90 | 9.00 | 50 | 9.22 and 9.15 | 10.59 | 0.00052 | 1.9e+07 | 8.96 | 0.0068 | 6e+06 | – | – | – | – | – | – | – | – | –
2 | recombinant human FcRN (His and Avi tagged), neonatal Fc receptor (from UniProt P55899) | < 6.70 | – | – | – | – | – | – | – | – | – | – | 7.36 and 6.77 | 6.6 nM and 3.9 nM | 59 nM and 225 nM | 2 | 7.51 | 2 | < 6.70 | < 6.70 | < 6.70
